The source of these data is patent publication CN114349851A (SHANGHAI NAI BIOTECHNOLOGY CO LTD, dated 2022).

Numbering of substitutions follows the chain as printed.

One test addresses T1, 新冠病毒全长S蛋白 (Spike-trimer) (SARS-CoV-2, UniProt P0DTC2 14-1213).
T1 construct: also called S-FL
In words: BLI (Octet RED96), His-tagged nanobody on Ni-NTA sensor.

The target in the next test is T2, B.1.617.1突变株RBD蛋白 (SARS-CoV-2 B.1.617.1, UniProt P0DTC2 319-541).
T2 construct: domain: RBD
Description: ELISA.

The target of another test is T3, Delta(B.1.617.2)突变株RBD蛋白 (SARS-CoV-2 Delta (B.1.617.2), UniProt P0DTC2 319-541).
T3 construct: domain: RBD; also called RBD-Delta; RBD-Delta(B.1.617.2)
Description: BLI (Octet RED96), His-tagged nanobody on Ni-NTA sensor. (Biolayer interferometry detects binding as a change in optical thickness at a sensor tip.)

B1: 纳米抗体C5 (C5克隆) (VHH)
VHH: DVQLVESGGGSVQAGGSLRLSCAASGKYSHLGFLGWFRQAPGKEREGVAAGLGAYEDGYYADSVKGRFTVSLDNAENTVYLQMNSLKPEDTALYYCAALVVFSRDSPEFLAQNYWGQGTQVTVSS
notes: also called C5抗体; C5 nanobody
Molecule B1 showed a Kd with 新冠病毒全长S蛋白 (Spike-trimer) of 18 nM.

B2: 纳米抗体C5G2 (VHH)
VHH: B1 VHH with Y28F, G32V, D57S, F102L, S106N, P107T, L110I, Q112H
On to B2, for which the binding result with B.1.617.1突变株RBD蛋白 is recorded as “no binding”. The same molecule registered a dissociation constant Kd in the test with Delta(B.1.617.2)突变株RBD蛋白 of 83.1 nM.

B3: 纳米抗体C5D2 (VHH)
VHH: B1 VHH with K27E, H30Q, G32R, Y55N, V101I, R104H, S106G
Turning to B3, in the test with B.1.617.1突变株RBD蛋白, the binding result is recorded as “no binding”. This molecule showed a Kd with Delta(B.1.617.2)突变株RBD蛋白 of 13.1 nM.

As usually defined, the Kd is the concentration at which binding is half-saturated. A high value points to a looser complex.
